Laboratory results from publication PMC2120816.

Biological target: thyroglobulin of normal mice (mouse (endogenous in thyroid tissue)) (UniProt O08710)
Assay: native gel or EMSA

stoichiometry N: 2
Substance: thyroglobulin of normal mice, O08710 21-2766
